# Starred links: 1 amine or outer side, 2 acyl side, 3 side chain; linkers in the order of their positions; H or OH if unused. Non-standard residues stand in square brackets, D forms with d. *: point of attachment. Oic = O=C(O)[C@@H]1C[C@@H]2CCCC[C@@H]2N1; Phe(4-Cl) = N[C@@H](Cc1ccc(Cl)cc1)C(=O)O; dPhe(4-Cl) = N[C@H](Cc1ccc(Cl)cc1)C(=O)O; γGlu = O=C(O)[C@H](CCC(=O)[*:2])N[*:1]; 2Nal = N[C@@H](Cc1ccc2ccccc2c1)C(=O)O; NMeR = CN[C@@H](CCCNC(=N)N)C(=O)O; Tridecanoyl = CCCCCCCCCCCCC(=O)*; hArg = N=C(N)NCCCC[C@H](N)C(=O)O; Cha = N[C@@H](CC1CCCCC1)C(=O)O; αMeL = CC(C)C[C@](C)(N)C(=O)O; β3hP = O=C(O)C[C@@H]1CCCN1; Nle = CCCC[C@H](N)C(=O)O; Orn = NCCC[C@H](N)C(=O)O; Deg = CCC(N)(CC)C(=O)O; AEEA = NCCOCCOCC(=O)O; Aib = CC(C)(N)C(=O)O
# T1: rat APJ receptor (rat, UniProt Q9JHG3 1-377)
# T1 sequence (looked up): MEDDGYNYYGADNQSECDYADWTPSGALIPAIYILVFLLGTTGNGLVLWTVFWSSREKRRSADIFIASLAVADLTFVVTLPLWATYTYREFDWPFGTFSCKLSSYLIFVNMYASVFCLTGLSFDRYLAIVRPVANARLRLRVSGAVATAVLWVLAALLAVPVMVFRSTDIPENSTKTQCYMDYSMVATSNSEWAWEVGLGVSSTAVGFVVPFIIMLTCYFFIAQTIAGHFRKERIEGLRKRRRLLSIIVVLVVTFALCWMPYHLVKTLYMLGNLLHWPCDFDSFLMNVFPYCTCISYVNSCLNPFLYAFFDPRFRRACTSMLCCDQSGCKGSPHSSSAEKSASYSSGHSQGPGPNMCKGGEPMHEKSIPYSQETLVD
# T2: human APJ receptor (human, UniProt P35414 1-380)
# T2 sequence (looked up): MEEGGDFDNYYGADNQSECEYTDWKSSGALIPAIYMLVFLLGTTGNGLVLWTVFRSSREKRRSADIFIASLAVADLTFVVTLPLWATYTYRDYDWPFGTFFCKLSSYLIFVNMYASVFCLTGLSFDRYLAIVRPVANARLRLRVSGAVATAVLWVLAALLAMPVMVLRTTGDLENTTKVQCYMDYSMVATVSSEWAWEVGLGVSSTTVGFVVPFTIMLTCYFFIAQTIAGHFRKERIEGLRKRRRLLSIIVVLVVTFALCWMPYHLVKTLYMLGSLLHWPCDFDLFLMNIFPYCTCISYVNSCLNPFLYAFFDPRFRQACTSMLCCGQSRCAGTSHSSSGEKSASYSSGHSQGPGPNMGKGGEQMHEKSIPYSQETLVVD
# B1: Apelin polypeptide SEQ ID NO: 301 (peptide)
# peptide: Tridecanoyl-[γGlu][AEEA][AEEA][dQ][hArg][β3hP][NMeR][Cha]SHKG[Oic][Nle]P[dPhe(4-Cl)]-OH
# SMILES: CCCCCCCCCCCCC(=O)N[C@@H](CCC(=O)NCCOCCOCC(=O)NCCOCCOCC(=O)N[C@H](CCC(N)=O)C(=O)N[C@@H](CCCCNC(=N)N)C(=O)N1CCC[C@H]1CC(=O)N(C)[C@@H](CCCNC(=N)N)C(=O)N[C@@H](CC1CCCCC1)C(=O)N[C@@H](CO)C(=O)N[C@@H](Cc1c[nH]cn1)C(=O)N[C@@H](CCCCN)C(=O)NCC(=O)N1[C@H](C(=O)N[C@@H](CCCC)C(=O)N2CCC[C@H]2C(=O)N[C@H](Cc2ccc(Cl)cc2)C(=O)O)C[C@@H]2CCCC[C@@H]21)C(=O)O
# B2: Apelin polypeptide SEQ ID NO: 550 (peptide)
# peptide: Tridecanoyl-[γGlu][AEEA][AEEA]Q[β3hP][NMeR][Cha]SHKG[Oic][Nle][Aib][Phe(4-Cl)]-OH
# SMILES: CCCCCCCCCCCCC(=O)N[C@@H](CCC(=O)NCCOCCOCC(=O)NCCOCCOCC(=O)N[C@@H](CCC(N)=O)C(=O)N1CCC[C@H]1CC(=O)N(C)[C@@H](CCCNC(=N)N)C(=O)N[C@@H](CC1CCCCC1)C(=O)N[C@@H](CO)C(=O)N[C@@H](Cc1c[nH]cn1)C(=O)N[C@@H](CCCCN)C(=O)NCC(=O)N1[C@H](C(=O)N[C@@H](CCCC)C(=O)NC(C)(C)C(=O)N[C@@H](Cc2ccc(Cl)cc2)C(=O)O)C[C@@H]2CCCC[C@@H]21)C(=O)O
# B3: Apelin polypeptide SEQ ID NO: 473 (peptide)
# peptide: Tridecanoyl-[γGlu][AEEA][AEEA]Q[hArg]P[NMeR][αMeL]SHKGP[Nle]P[2Nal]-OH
# SMILES: CCCCCCCCCCCCC(=O)N[C@@H](CCC(=O)NCCOCCOCC(=O)NCCOCCOCC(=O)N[C@@H](CCC(N)=O)C(=O)N[C@@H](CCCCNC(=N)N)C(=O)N1CCC[C@H]1C(=O)N(C)[C@@H](CCCNC(=N)N)C(=O)N[C@@](C)(CC(C)C)C(=O)N[C@@H](CO)C(=O)N[C@@H](Cc1c[nH]cn1)C(=O)N[C@@H](CCCCN)C(=O)NCC(=O)N1CCC[C@H]1C(=O)N[C@@H](CCCC)C(=O)N1CCC[C@H]1C(=O)N[C@@H](Cc1ccc2ccccc2c1)C(=O)O)C(=O)O
# B4: Apelin polypeptide SEQ ID NO: 488 (peptide)
# peptide: Tridecanoyl-[γGlu][AEEA][AEEA][dQ][hArg]P[hArg][Cha]SHKG[Oic][Nle]P[Phe(4-Cl)]-OH
# SMILES: CCCCCCCCCCCCC(=O)N[C@@H](CCC(=O)NCCOCCOCC(=O)NCCOCCOCC(=O)N[C@H](CCC(N)=O)C(=O)N[C@@H](CCCCNC(=N)N)C(=O)N1CCC[C@H]1C(=O)N[C@@H](CCCCNC(=N)N)C(=O)N[C@@H](CC1CCCCC1)C(=O)N[C@@H](CO)C(=O)N[C@@H](Cc1c[nH]cn1)C(=O)N[C@@H](CCCCN)C(=O)NCC(=O)N1[C@H](C(=O)N[C@@H](CCCC)C(=O)N2CCC[C@H]2C(=O)N[C@@H](Cc2ccc(Cl)cc2)C(=O)O)C[C@@H]2CCCC[C@@H]21)C(=O)O
# B5: Apelin polypeptide SEQ ID NO: 489 (peptide)
# peptide: Tridecanoyl-[γGlu][AEEA][AEEA]Q[hArg]P[hArg][Cha]SHKG[Oic][Nle]P[Phe(4-Cl)]-OH
# SMILES: CCCCCCCCCCCCC(=O)N[C@@H](CCC(=O)NCCOCCOCC(=O)NCCOCCOCC(=O)N[C@@H](CCC(N)=O)C(=O)N[C@@H](CCCCNC(=N)N)C(=O)N1CCC[C@H]1C(=O)N[C@@H](CCCCNC(=N)N)C(=O)N[C@@H](CC1CCCCC1)C(=O)N[C@@H](CO)C(=O)N[C@@H](Cc1c[nH]cn1)C(=O)N[C@@H](CCCCN)C(=O)NCC(=O)N1[C@H](C(=O)N[C@@H](CCCC)C(=O)N2CCC[C@H]2C(=O)N[C@@H](Cc2ccc(Cl)cc2)C(=O)O)C[C@@H]2CCCC[C@@H]21)C(=O)O
# B6: Apelin polypeptide SEQ ID NO: 358 (peptide)
# peptide: Tridecanoyl-[γGlu][AEEA][AEEA]Q[hArg]P[hArg]LSHKG[Oic][Nle]P[Phe(4-Cl)]-OH
# SMILES: CCCCCCCCCCCCC(=O)N[C@@H](CCC(=O)NCCOCCOCC(=O)NCCOCCOCC(=O)N[C@@H](CCC(N)=O)C(=O)N[C@@H](CCCCNC(=N)N)C(=O)N1CCC[C@H]1C(=O)N[C@@H](CCCCNC(=N)N)C(=O)N[C@@H](CC(C)C)C(=O)N[C@@H](CO)C(=O)N[C@@H](Cc1c[nH]cn1)C(=O)N[C@@H](CCCCN)C(=O)NCC(=O)N1[C@H](C(=O)N[C@@H](CCCC)C(=O)N2CCC[C@H]2C(=O)N[C@@H](Cc2ccc(Cl)cc2)C(=O)O)C[C@@H]2CCCC[C@@H]21)C(=O)O
# B7: Apelin polypeptide SEQ ID NO: 486 (peptide)
# peptide: Tridecanoyl-[γGlu][AEEA][AEEA][dQ][hArg][Oic][dR][Cha]SHKG[Oic][Nle]P[Phe(4-Cl)]-OH
# SMILES: CCCCCCCCCCCCC(=O)N[C@@H](CCC(=O)NCCOCCOCC(=O)NCCOCCOCC(=O)N[C@H](CCC(N)=O)C(=O)N[C@@H](CCCCNC(=N)N)C(=O)N1[C@H](C(=O)N[C@H](CCCNC(=N)N)C(=O)N[C@@H](CC2CCCCC2)C(=O)N[C@@H](CO)C(=O)N[C@@H](Cc2c[nH]cn2)C(=O)N[C@@H](CCCCN)C(=O)NCC(=O)N2[C@H](C(=O)N[C@@H](CCCC)C(=O)N3CCC[C@H]3C(=O)N[C@@H](Cc3ccc(Cl)cc3)C(=O)O)C[C@@H]3CCCC[C@@H]32)C[C@@H]2CCCC[C@@H]21)C(=O)O
# B8: Apelin polypeptide SEQ ID NO: 455 (peptide)
# peptide: Tridecanoyl-[γGlu][AEEA][AEEA][dQ][hArg][Deg][dR][Cha]SHKG[Oic][Nle]P[Phe(4-Cl)]-OH
# SMILES: CCCCCCCCCCCCC(=O)N[C@@H](CCC(=O)NCCOCCOCC(=O)NCCOCCOCC(=O)N[C@H](CCC(N)=O)C(=O)N[C@@H](CCCCNC(=N)N)C(=O)NC(CC)(CC)C(=O)N[C@H](CCCNC(=N)N)C(=O)N[C@@H](CC1CCCCC1)C(=O)N[C@@H](CO)C(=O)N[C@@H](Cc1c[nH]cn1)C(=O)N[C@@H](CCCCN)C(=O)NCC(=O)N1[C@H](C(=O)N[C@@H](CCCC)C(=O)N2CCC[C@H]2C(=O)N[C@@H](Cc2ccc(Cl)cc2)C(=O)O)C[C@@H]2CCCC[C@@H]21)C(=O)O
# B9: Apelin polypeptide SEQ ID NO: 297 (peptide)
# peptide: Tridecanoyl-[γGlu][AEEA][AEEA][Orn]F[hArg][hArg]Q[NMeR]P[NMeR][Cha]SHKG[Oic][Nle]P[Phe(4-Cl)]-OH
# SMILES: CCCCCCCCCCCCC(=O)N[C@@H](CCC(=O)NCCOCCOCC(=O)NCCOCCOCC(=O)N[C@@H](CCCN)C(=O)N[C@@H](Cc1ccccc1)C(=O)N[C@@H](CCCCNC(=N)N)C(=O)N[C@@H](CCCCNC(=N)N)C(=O)N[C@@H](CCC(N)=O)C(=O)N(C)[C@@H](CCCNC(=N)N)C(=O)N1CCC[C@H]1C(=O)N(C)[C@@H](CCCNC(=N)N)C(=O)N[C@@H](CC1CCCCC1)C(=O)N[C@@H](CO)C(=O)N[C@@H](Cc1c[nH]cn1)C(=O)N[C@@H](CCCCN)C(=O)NCC(=O)N1[C@H](C(=O)N[C@@H](CCCC)C(=O)N2CCC[C@H]2C(=O)N[C@@H](Cc2ccc(Cl)cc2)C(=O)O)C[C@@H]2CCCC[C@@H]21)C(=O)O
# B10: Apelin polypeptide SEQ ID NO: 359 (peptide)
# peptide: Tridecanoyl-[γGlu][AEEA][AEEA]Q[hArg]P[NMeR][αMeL]SHKG[Oic][Nle]P[Phe(4-Cl)]-OH
# SMILES: CCCCCCCCCCCCC(=O)N[C@@H](CCC(=O)NCCOCCOCC(=O)NCCOCCOCC(=O)N[C@@H](CCC(N)=O)C(=O)N[C@@H](CCCCNC(=N)N)C(=O)N1CCC[C@H]1C(=O)N(C)[C@@H](CCCNC(=N)N)C(=O)N[C@@](C)(CC(C)C)C(=O)N[C@@H](CO)C(=O)N[C@@H](Cc1c[nH]cn1)C(=O)N[C@@H](CCCCN)C(=O)NCC(=O)N1[C@H](C(=O)N[C@@H](CCCC)C(=O)N2CCC[C@H]2C(=O)N[C@@H](Cc2ccc(Cl)cc2)C(=O)O)C[C@@H]2CCCC[C@@H]21)C(=O)O
# Molecular target: T1, rat APJ receptor
# Assay: cell-based or functional assay
row,EC50 Rat APJ Receptor (GTPγS assay) [nM],Binder
1,29,B1
2,135,B2
3,0.0628,XXXQRPRLSHKGPXPF ({TDA}[AC4Abu][Aeea][Aeea]Q[hArg]P[NMeArg][aMeLeu]SHKGP[Nle]P[4-Cl-F]{COOH}) [Apelin polypeptide SEQ ID NO: 460]
4,0.465,B3
5,1.72,B4
6,3.59,B5
7,0.314,B6
8,4.04,B7
9,10.3,B8
10,1.02,B9
11,0.116,B10

# Molecular target: T2, human APJ receptor
# Assay: cell-based or functional assay
row,EC50 Human APJ Receptor (GTPγS assay) [nM],Binder
1,36,B1
2,94.8,B2
3,0.0347,XXXQRPRLSHKGPXPF ({TDA}[AC4Abu][Aeea][Aeea]Q[hArg]P[NMeArg][aMeLeu]SHKGP[Nle]P[4-Cl-F]{COOH}) [Apelin polypeptide SEQ ID NO: 460]
4,0.099,B3
5,0.198,B4
6,0.601,B5
7,0.285,B6
8,1.79,B7
9,2.48,B8
10,0.698,B9
11,0.0529,B10
